# In patent US20110065176A1:
# Biological target: KDR(ECD1-3)-Fc (human) (UniProt P35968)
# Experiment: BIAcore; KDR(ECD1-3)-Fc immobilized on CM5 chip, IgG in flow
# Sequence of KDR(ECD1-3)-Fc (human) (P35968 other isoform, or with tags, fused parts or gaps limits assumed, form in doubt): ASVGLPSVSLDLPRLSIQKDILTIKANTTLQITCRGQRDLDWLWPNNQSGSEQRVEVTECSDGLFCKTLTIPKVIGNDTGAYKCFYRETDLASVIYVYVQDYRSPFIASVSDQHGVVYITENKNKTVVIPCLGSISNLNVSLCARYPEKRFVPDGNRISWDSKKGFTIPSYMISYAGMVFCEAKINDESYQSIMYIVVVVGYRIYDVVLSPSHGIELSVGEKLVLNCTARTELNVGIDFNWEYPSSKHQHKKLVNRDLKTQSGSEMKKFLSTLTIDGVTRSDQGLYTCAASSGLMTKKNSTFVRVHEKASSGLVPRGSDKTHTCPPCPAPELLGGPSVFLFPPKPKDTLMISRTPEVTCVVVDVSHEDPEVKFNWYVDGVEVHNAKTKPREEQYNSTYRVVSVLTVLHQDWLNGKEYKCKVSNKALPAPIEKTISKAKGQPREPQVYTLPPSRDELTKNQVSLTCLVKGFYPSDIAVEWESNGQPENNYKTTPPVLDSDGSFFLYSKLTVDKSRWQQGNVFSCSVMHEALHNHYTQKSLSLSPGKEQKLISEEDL
substance,measurement,value
IMC-1121 IgG (reconstructed) (antibody),Kd,0.385 nM
same,koff,8.75e-05 s⁻¹
same,kon,227000 M⁻¹ s⁻¹
